Measured values: publication PMC4654454 (ACS chemical biology, 2015)

Key:
hORC1 BAH F89S = target: T1, hORC1 BAH F89S (human, UniProt Q13415 45-171, F89S); experiment: EMSA
T1 sequence: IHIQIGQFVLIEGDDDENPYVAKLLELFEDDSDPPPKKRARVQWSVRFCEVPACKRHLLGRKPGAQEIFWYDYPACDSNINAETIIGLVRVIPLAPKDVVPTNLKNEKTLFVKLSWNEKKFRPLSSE

hORC1 BAH E127G = target: T2, hORC1 BAH E127G (human, UniProt Q13415 45-171, E127G); experiment: EMSA
T2 sequence: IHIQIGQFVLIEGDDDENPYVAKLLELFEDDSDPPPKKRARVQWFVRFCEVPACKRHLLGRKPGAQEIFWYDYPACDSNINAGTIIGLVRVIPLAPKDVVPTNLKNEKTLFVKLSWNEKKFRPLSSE

B1: 14-bp DNA duplex (dsDNA)
DNA 1: GGAGGCCTCCTGCT
DNA 2: AGCAGGAGGCCTCC
- binding result (hORC1 BAH F89S): binds
- binding result (hORC1 BAH E127G): binds
